Laboratory results as given in patent US7183387 (Genentech, dated 2007).
Each block holds one binder with its values, some of them ahead of it.

What was measured:
Experiment in all cases: ELISA, IgG:IgE hexamers on receptor-GST
[1] = target: T1, human FcγRIIB α subunit extracellular domain-6His-GST fusion (human, UniProt P31994 43-217)
T1 construct: not shown: glutathione S-transferase (GST)
T1 sequence: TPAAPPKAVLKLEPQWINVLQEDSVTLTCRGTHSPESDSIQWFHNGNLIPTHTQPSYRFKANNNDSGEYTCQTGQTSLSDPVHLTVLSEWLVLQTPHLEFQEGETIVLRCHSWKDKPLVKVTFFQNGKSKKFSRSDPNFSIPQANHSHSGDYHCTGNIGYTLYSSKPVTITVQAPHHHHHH

[2] = target: T2, human FcγRIIA-R131 α subunit extracellular domain-6His-GST fusion (human, UniProt P12318 34-217)
T2 construct: also called FcγRIIA-Arg131; not shown: glutathione S-transferase (GST)
T2 sequence: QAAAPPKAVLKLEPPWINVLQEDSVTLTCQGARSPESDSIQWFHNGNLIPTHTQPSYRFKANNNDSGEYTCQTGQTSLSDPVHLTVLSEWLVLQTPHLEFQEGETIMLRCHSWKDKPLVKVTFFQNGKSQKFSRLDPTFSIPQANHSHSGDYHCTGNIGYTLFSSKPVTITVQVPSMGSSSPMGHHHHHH

[3] = target: T3, human FcγRIIIA-F158 α subunit extracellular domain-6His-GST fusion (human, UniProt P08637 17-208)
T3 construct: also called FcγRIIIA-Phe158; not shown: glutathione S-transferase (GST)
T3 sequence (P08637 other isoform, or with tags, fused parts or gaps, form in doubt): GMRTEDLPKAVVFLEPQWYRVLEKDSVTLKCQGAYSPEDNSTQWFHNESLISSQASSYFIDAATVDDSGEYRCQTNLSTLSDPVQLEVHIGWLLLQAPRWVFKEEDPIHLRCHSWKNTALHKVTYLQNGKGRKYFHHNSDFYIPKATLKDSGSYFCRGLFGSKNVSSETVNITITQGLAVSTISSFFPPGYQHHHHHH

ratio to native IgG1 [1]: 2.01
ratio to native IgG1 [2]: 1.68
ratio to native IgG1 [3]: 1.36
B1: E27 IgG1 variant K326(345)D (antibody)
heavy: not shown
light: DIQLTQSPSSLSASVGDRVTITCRASKPVDGEGDSYLNWYQQKPGKAPKLLIYAASYLESGVPSRFSGSGSGTDFTLTISSLQPEDFATYYCQQSHEDPYTFGQGTKVEIKRTVAAPSVFIFPPSDEQLKSGTASVVCLLNNFYPREAKVQWKVDNALQSGNSQESVTEQDSKDSTYSLSSTLTLSKADYEKHKVYACEVTHQGLSSPVTKSFNRGEC
notes: also called IG2 211

ratio to native IgG1 [1]: 0.4
ratio to native IgG1 [2]: 0.51
ratio to native IgG1 [3]: 1.13
B3: E27 IgG1 variant K334(353)D (antibody)
heavy: not shown
light: B1 light
notes: also called IG2 140

ratio to native IgG1 [1]: 0.72
ratio to native IgG1 [2]: 0.74
ratio to native IgG1 [3]: 1.3
B4: E27 IgG1 variant K334(353)E (antibody)
heavy: not shown
light: B1 light

ratio to native IgG1 [1]: 1.38
ratio to native IgG1 [2]: 1.72
ratio to native IgG1 [3]: 1.32
B5: E27 IgG1 variant N286(303)S (antibody)
heavy: not shown
light: B1 light
notes: also called IG2 237

ratio to native IgG1 [1]: 0.27
ratio to native IgG1 [2]: 0.29
ratio to native IgG1 [3]: 0.73
B6: E27 IgG1 variant S298(317)T (antibody)
heavy: not shown
light: B1 light
notes: also called IG2 71

ratio to native IgG1 [1]: 0.17
ratio to native IgG1 [2]: 0.11
ratio to native IgG1 [3]: 0.33
B8: E27 IgG1 variant S298(317)V (antibody)
heavy: not shown
light: B1 light
notes: also called IG2 218

ratio to native IgG1 [1]: 0.79
ratio to native IgG1 [2]: 1.09
ratio to native IgG1 [3]: 0.91
B9: E27 IgG1 variant N276(289)Q (antibody)
heavy: not shown
light: B1 light
notes: also called IG2 233

ratio to native IgG1 [1]: 1
ratio to native IgG1 [2]: 1.04
ratio to native IgG1 [3]: 1.27
B10: E27 IgG1 variant K326(345)N (antibody)
heavy: not shown
light: B1 light
notes: also called IG2 209

ratio to native IgG1 [1]: 1.23
ratio to native IgG1 [2]: 1.41
ratio to native IgG1 [3]: 0.98
B11: E27 IgG1 variant N286(303)D (antibody)
heavy: not shown
light: B1 light
notes: also called IG2 238

ratio to native IgG1 [1]: 0.77
ratio to native IgG1 [2]: 0.81
ratio to native IgG1 [3]: 0.61
B12: E27 IgG1 variant N276(289)K (antibody)
heavy: not shown
light: B1 light

ratio to native IgG1 [1]: 0.91
ratio to native IgG1 [2]: 1.06
ratio to native IgG1 [3]: 0.42
B13: E27 IgG1 variant P331(350)E (antibody)
heavy: not shown
light: B1 light
notes: also called IG2 200

ratio to native IgG1 [1]: 0.12
ratio to native IgG1 [2]: 0.21
ratio to native IgG1 [3]: 0.92
B15: E27 IgG1 variant R292(309)H (antibody)
heavy: not shown
light: B1 light
notes: also called IG2 81

ratio to native IgG1 [1]: 0.93
ratio to native IgG1 [2]: 0.99
ratio to native IgG1 [3]: 0.49
B17: E27 IgG1 variant K338(358)M (antibody)
heavy: not shown
light: B1 light

ratio to native IgG1 [1]: 1.13
ratio to native IgG1 [2]: 1.52
ratio to native IgG1 [3]: 0.96
B19: E27 IgG1 variant N286(303)Q (antibody)
heavy: not shown
light: B1 light
notes: also called IG2 23

ratio to native IgG1 [1]: 1.03
ratio to native IgG1 [2]: 1.01
ratio to native IgG1 [3]: 1.19
B20: E27 IgG1 variant K334(353)S (antibody)
heavy: not shown
light: B1 light

ratio to native IgG1 [1]: 1.41
ratio to native IgG1 [2]: 1.36
ratio to native IgG1 [3]: 1.15
B23: E27 IgG1 variant K326(345)Q (antibody)
heavy: not shown
light: B1 light
notes: also called IG2 210

ratio to native IgG1 [1]: 0.65
ratio to native IgG1 [2]: 0.86
ratio to native IgG1 [3]: 0.23
B25: E27 IgG1 variant P331(350)N (antibody)
heavy: not shown
light: B1 light
notes: also called IG2 199

ratio to native IgG1 [1]: 0.25
ratio to native IgG1 [2]: 0.47
ratio to native IgG1 [3]: 0.45
B26: E27 IgG1 variant R292(309)Q (antibody)
heavy: not shown
light: B1 light
notes: also called IG2 82

ratio to native IgG1 [1]: 0.83
ratio to native IgG1 [2]: 0.82
ratio to native IgG1 [3]: 0.78
B30: E27 IgG1 variant S324(343)Q (antibody)
heavy: not shown
light: B1 light
notes: also called IG2 214

ratio to native IgG1 [1]: 1.29
ratio to native IgG1 [2]: 1.16
ratio to native IgG1 [3]: 1.11
B33: E27 IgG1 variant K334(353)N (antibody)
heavy: not shown
light: B1 light

ratio to native IgG1 [1]: 0.37
ratio to native IgG1 [2]: 0.66
ratio to native IgG1 [3]: 0.77
B39: E27 IgG1 variant S324(343)K (antibody)
heavy: not shown
light: B1 light
notes: also called IG2 215

Second part, the binder before the results:

B2: E27 IgG1 variant T256(269)N (antibody)
heavy: not shown
light: B1 light
ratio to native IgG1 [1]: 0.89
ratio to native IgG1 [2]: 1.03
ratio to native IgG1 [3]: 1.13

B7: E27 IgG1 variant K334(353)L (antibody)
heavy: not shown
light: B1 light
notes: also called IG2 221
ratio to native IgG1 [1]: 1.09
ratio to native IgG1 [2]: 1.05
ratio to native IgG1 [3]: 1.38

B14: E27 IgG1 variant S298(317)L (antibody)
heavy: not shown
light: B1 light
ratio to native IgG1 [1]: 1.42
ratio to native IgG1 [2]: 1.14
ratio to native IgG1 [3]: 0.34

B16: E27 IgG1 variant P331(350)S (antibody)
heavy: not shown
light: B1 light
notes: also called IG2 198
ratio to native IgG1 [1]: 0.78
ratio to native IgG1 [2]: 0.91
ratio to native IgG1 [3]: 0.58

B18: E27 IgG1 variant S324(343)E (antibody)
heavy: not shown
light: B1 light
notes: also called IG2 216
ratio to native IgG1 [1]: 0.73
ratio to native IgG1 [2]: 0.82
ratio to native IgG1 [3]: 0.81

B21: E27 IgG1 variant K334(353)Q (antibody)
heavy: not shown
light: B1 light
ratio to native IgG1 [1]: 1.1
ratio to native IgG1 [2]: 1.08
ratio to native IgG1 [3]: 1.23

B22: E27 IgG1 variant R292(309)K (antibody)
heavy: not shown
light: B1 light
notes: also called IG2 80
ratio to native IgG1 [1]: 0.75
ratio to native IgG1 [2]: 0.71
ratio to native IgG1 [3]: 1.15

B24: E27 IgG1 variant R292(309)N (antibody)
heavy: not shown
light: B1 light
notes: also called IG2 83
ratio to native IgG1 [1]: 0.29
ratio to native IgG1 [2]: 0.54
ratio to native IgG1 [3]: 0.88

B27: E27 IgG1 variant S324(343)N (antibody)
heavy: not shown
light: B1 light
notes: also called IG2 213
ratio to native IgG1 [1]: 1.09
ratio to native IgG1 [2]: 1.15
ratio to native IgG1 [3]: 0.97

B28: E27 IgG1 variant S298(317)N (antibody)
heavy: not shown
light: B1 light
notes: also called IG2 72
ratio to native IgG1 [1]: 0.08
ratio to native IgG1 [2]: 0.05
ratio to native IgG1 [3]: 0.06

B29: E27 IgG1 variant K334(353)V (antibody)
heavy: not shown
light: B1 light
notes: also called IG2 220
ratio to native IgG1 [1]: 1.09
ratio to native IgG1 [2]: 1.13
ratio to native IgG1 [3]: 1.34

B31: E27 IgG1 variant K326(345)E (antibody)
heavy: not shown
light: B1 light
notes: also called IG2 212
ratio to native IgG1 [1]: 1.47
ratio to native IgG1 [2]: 1.34
ratio to native IgG1 [3]: 1.26

B32: E27 IgG1 variant R301(320)M (antibody)
heavy: not shown
light: B1 light
ratio to native IgG1 [1]: 1.56
ratio to native IgG1 [2]: 1.29
ratio to native IgG1 [3]: 0.48

B34: E27 IgG1 variant P331(350)K (antibody)
heavy: not shown
light: B1 light
ratio to native IgG1 [1]: 0.71
ratio to native IgG1 [2]: 0.94
ratio to native IgG1 [3]: 0.33

B35: E27 IgG1 variant T256(269)G (antibody)
heavy: not shown
light: B1 light
notes: also called IG2 176
ratio to native IgG1 [1]: 1.06
ratio to native IgG1 [2]: 1.1
ratio to native IgG1 [3]: 0.96

B36: E27 IgG1 variant K326(345)S (antibody)
heavy: not shown
light: B1 light
ratio to native IgG1 [1]: 1.62
ratio to native IgG1 [2]: 1.44
ratio to native IgG1 [3]: 1.37

B37: E27 IgG1 variant S298(317)G (antibody)
heavy: not shown
light: B1 light
notes: also called IG2 70
ratio to native IgG1 [1]: 0.63
ratio to native IgG1 [2]: 0.87
ratio to native IgG1 [3]: 0.46

B38: E27 IgG1 variant K334(353)R (antibody)
heavy: not shown
light: B1 light
ratio to native IgG1 [1]: 1.33
ratio to native IgG1 [2]: 1.15
ratio to native IgG1 [3]: 0.68
